From paper PMC12817480, “Phospho‐Proteomics Identifies D‐Group MAP Kinases as Substrates of the Arabidopsis Tyrosine Phosphatase RLPH2” (Plant Direct, 2026)
Values belong to the binder of their own block, whether it stands above or below them.

Key:
Settings in all cases: both partners purified
[1] = target: T1, Purified MPK9‐V5‐His6 with the RVSF motif maintained (MPK9^RVSF), as used with PP1 (Arabidopsis thaliana, UniProt Q9LV37 1-510); test: far-Western, overlay or dot blot; MPK9^RVXF and MPK9^RASA run on SDS‐PAGE, blotted to nitrocellulose, probed with PP1 (TOPP) isoforms (2 μg/mL) for 4 h in TBS plus 5% milk powder; PP1 detected with anti‐TOPP antibody
T1 construct: MAP kinase 9 (MPK9), Arabidopsis thaliana, At3g18040, synthesized gene codon optimized for bacteria, in pDEST42; Same construct as m2; also called MPK9^RVXF; MPK9^RVxF; source: E. coli BL21 (DE3) CodonPlus‐RIL, purified (Ni‐NTA)
T1 sequence (looked up): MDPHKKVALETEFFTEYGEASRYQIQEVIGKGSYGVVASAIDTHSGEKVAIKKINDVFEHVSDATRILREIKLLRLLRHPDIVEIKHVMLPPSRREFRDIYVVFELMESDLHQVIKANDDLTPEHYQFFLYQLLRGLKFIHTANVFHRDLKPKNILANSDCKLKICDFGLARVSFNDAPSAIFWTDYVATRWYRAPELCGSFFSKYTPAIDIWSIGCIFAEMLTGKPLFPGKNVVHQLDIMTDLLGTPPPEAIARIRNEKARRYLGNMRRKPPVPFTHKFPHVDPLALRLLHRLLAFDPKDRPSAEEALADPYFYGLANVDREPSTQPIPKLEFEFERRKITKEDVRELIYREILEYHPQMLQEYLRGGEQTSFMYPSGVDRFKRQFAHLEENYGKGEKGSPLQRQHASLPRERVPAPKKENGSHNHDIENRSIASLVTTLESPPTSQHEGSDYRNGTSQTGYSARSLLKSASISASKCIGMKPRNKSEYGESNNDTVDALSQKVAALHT

[2] = target: T2, MPK9‐V5‐His6, full‐length, activated/phosphorylated (MPK9^TDY) (Arabidopsis thaliana, UniProt Q9LV37 1-510, phospho-threonine and phospho-tyrosine of the activation loop TDY motif (autophosphorylated; dual phosphorylated pTxpY)); test: far-Western, overlay or dot blot; purified activated MPKs dotted onto nitrocellulose, blocked, overlaid with purified RLPH2 (1.5 μg/mL), detected with anti‐RLPH2 antibody; in triplicate
T2 construct: MAP kinase 9 (MPK9), Arabidopsis thaliana, At3g18040, synthesized gene codon optimized for bacteria, in pDEST42; Printed as MPK9-V5-His6 (tags written after the name); also called MAP kinase 9; ATMPK9; source: E. coli BL21 (DE3) CodonPlus‐RIL, purified (Ni‐NTA), then autophosphorylated with Mg‐ATP
T2 sequence (looked up): T1 sequence (looked up)

[3] = target: T1, Purified MPK9‐V5‐His6 with the RVSF …; test: pull-down; TOPP5 (1 μg) and MPK9^RVXF or MPK9^RASA (5 μg) incubated 1 h at RT, then with BSA‐blocked Ni‐NTA 1 h at RT; washed with 50 mM HEPES pH 7.5, 300 mM NaCl, 0.1% Tween 20; western blot (V5, pan‐TOPP)

binding result [1]: binds
B1: Arabidopsis PP1 isoform 4 (TOPP4) (enzyme, Arabidopsis thaliana, UniProt P48484 1-321, looked up)
chain: MATTTTTQGQQTAIDSAVLDDIIRRLTEVRLARPGKQVQLSEAEIKQLCTTARDIFLQQPNLLELEAPIKICGDIHGQYSDLLRLFEYGGFPPSANYLFLGDYVDRGKQSLETICLLLAYKIKYPGNFFLLRGNHECASINRIYGFYDECKRRFNVRVWKVFTDCFNCLPVAALIDDKILCMHGGLSPDLDHLDEIRNLPRPTMIPDTGLLCDLLWSDPGKDVKGWGMNDRGVSYTFGPDKVSEFLTKHDLDLVCRAHQVVEDGYEFFADRQLVTVFSAPNYCGEFDNAGAMMSVDENLMCSFQILKPAEKKTKFMMSTKI
notes: Type one protein phosphatase 4 (TOPP4), PP1 catalytic subunit, Arabidopsis thaliana; source: recombinant, purified on microcystin‐Sepharose (as in Templeton et al. 2011)

binding result [1]: binds
B2: Arabidopsis PP1 isoform 8 (TOPP8) (enzyme, Arabidopsis thaliana, UniProt O82734 1-324, looked up)
chain: MMTSMEGMVEKGVLDDIIRRLLEGKGGKQVQLSESEIRQLCFNARQIFLSQPNLLDLHAPIRICGDIHGQYQDLLRLFEYGGYPPSANYLFLGDYVDRGKQSLETICLLLAYKIRYPSKIYLLRGNHEDAKINRIYGFYDECKRRFNVRLWKVFTDCFNCLPVAALIDEKILCMHGGLSPDLDNLNQIREIQRPIEIPDSGLLCDLLWSDPDQKIEGWADSDRGISCTFGADKVAEFLDKNDLDLICRGHQVVEDGYEFFAKRRLVTIFSAPNYGGEFDNAGALLSVDESLVCSFEIMKPAPASSSHPLKKDFHNRTLGYNLSA
notes: Type one protein phosphatase 8 (TOPP8), PP1 catalytic subunit, Arabidopsis thaliana; source: recombinant, purified on microcystin‐Sepharose (as in Templeton et al. 2011)

binding result [1]: binds
B3: Arabidopsis PP1 isoform 1 (TOPP1) (enzyme, Arabidopsis thaliana, UniProt P30366 1-318, looked up)
chain: MAEKPAQEQEQKRAMEPAVLDDIIRRLVEFRNTRPGSGKQVHLSEGEIRQLCAVSKEIFLQQPNLLELEAPIKICGDIHGQYSDLLRLFEYGGFPPEANYLFLGDYVDRGKQSLETICLLLAYKIKYPENFFLLRGNHESASINRIYGFYDECKRRFNVRLWKIFTDCFNCLPVAALIDDRILCMHGGISPELKSLDQIRNIARPMDIPESGLVCDLLWSDPSGDVGWGMNDRGVSYTFGADKVAEFLEKHDMDLICRAHQVVEDGYEFFAERQLVTVFSAPNYCGEFDNAGAMMSIDESLMCSFQILKPSEKKSPFL
notes: Type one protein phosphatase 1 (TOPP1), PP1 catalytic subunit, Arabidopsis thaliana; source: recombinant, purified on microcystin‐Sepharose (as in Templeton et al. 2011)

binding result [1]: binds
B4: Arabidopsis PP1 isoform 2 (TOPP2) (enzyme, Arabidopsis thaliana, UniProt P48482 1-312, looked up)
chain: MAQQGQGSMDPAALDDIIRRLLDYRNPKPGTKQAMLNESEIRQLCIVSREIFLQQPNLLELEAPIKICGDIHGQYSDLLRLFEYGGFPPTANYLFLGDYVDRGKQSLETICLLLAYKIKYPENFFLLRGNHECASINRIYGFYDECKRRFSVRLWKVFTDSFNCLPVAAVIDDKILCMHGGLSPDLTNVEQIKNIKRPTDVPDSGLLCDLLWSDPSKDVKGWGMNDRGVSYTFGPDKVAEFLIKNDMDLICRAHQVVEDGYEFFADRQLVTIFSAPNYCGEFDNAGAMMSVDESLMCSFQILKPADRKPRFL
notes: Type one protein phosphatase 2 (TOPP2), PP1 catalytic subunit, Arabidopsis thaliana; source: recombinant, purified on microcystin‐Sepharose (as in Templeton et al. 2011)

binding result [1]: binds
B5: Arabidopsis PP1 isoform 3 (TOPP3) (enzyme, Arabidopsis thaliana, UniProt P48483 1-322, looked up)
chain: MEDSVVDDVIKRLLGAKNGKTTKQVQLTEAEIKHLCSTAKQIFLTQPNLLELEAPIKICGDTHGQFSDLLRLFEYGGYPPAANYLFLGDYVDRGKQSVETICLLLAYKIKYKENFFLLRGNHECASINRIYGFYDECKKRYSVRVWKIFTDCFNCLPVAALIDEKILCMHGGLSPELKHLDEIRNIPRPADIPDHGLLCDLLWSDPDKDIEGWGENDRGVSYTFGADKVEEFLQTHDLDLICRAHQVVEDGYEFFANRQLVTIFSAPNYCGEFDNAGAMMSVDDSLTCSFQILKASEKKGNFGFGKNAGRRGTPPRKGGGKG
notes: Type one protein phosphatase 3 (TOPP3), PP1 catalytic subunit, Arabidopsis thaliana; source: recombinant, purified on microcystin‐Sepharose (as in Templeton et al. 2011)

binding result [2]: binds
B6: Arabidopsis thaliana Rhizobiales‐like phosphatase 2 (RLPH2‐V5‐His6) (enzyme, UniProt Q9SR62 1-309, looked up)
chain: MAQKPRTVICVGDIHGYISKLNNLWLNLQSAIDPSDFSSALVIFLGDYCDRGPETRKVIDFLISLPEKHPDQTHVFLAGNHDFAFSGFLGLLPRPSDGSDLKDTWKEYSKSEETEGWYTGEGFEDMHLQGRRWAGKIKATFNSVKGMAYKGSIYDAGSTFESYGVPHGSSDLMKAVPESHKKFLTNMVWVHEEDDVCIETEEGLKHCKLIAVHAGLEKGNNVEEQLKLLRAKDTSISKIQHLSGRKNVWDIPQELDDKHTVVVSGHHGKLHIDGMRLIIDEGGGFPDKPVAAIVLPSKKIIRDTDNLSS
notes: Rhizobiales-like phosphatase 2 (RLPH2), Arabidopsis thaliana; Printed as RLPH2-V5-His6 (tags written after the name); source: bacterially expressed, purified (as in Uhrig et al. 2016)

binding result [3]: binds
B7: Arabidopsis PP1 isoform 5 (TOPP5) (enzyme, Arabidopsis thaliana, UniProt P48485 1-312, looked up)
chain: MAQQGQGSMDPAVLDDIIRRLLDYRNPKAGTKQAMLNDSEIRQLCFVSREIFLQQPCLLELAAPVKICGDIHGQYSDLLRLFEYGGFPPAANYLFLGDYVDRGKQSLETICLLLAYKIKYPENFFLLRGNHECASINRIYGFYDECKRRFNVKLWKVFTDTFNCLPVAAVIDEKILCMHGGLSPELINVEQIKNIERPTDVPDAGLLCDLLWSDPSKDVKGWGMNDRGVSYTFGADKVAEFLIKNDMDLVCRAHQVVEDGYEFFADRQLVTMFSAPNYCGEFDNAGALMSVDESLMCSFQILKPVDRRSRFF
notes: Type one protein phosphatase 5 (TOPP5), PP1 catalytic subunit, Arabidopsis thaliana; also called AtPP1; source: recombinant, purified on microcystin‐Sepharose (as in Templeton et al. 2011)

binding result [1]: binds
B8: Arabidopsis PP1 isoform 9 (TOPP9) (enzyme, Arabidopsis thaliana, UniProt Q9M9W3 1-318, looked up)
chain: MMTSMEGMMEMGVLDDIIRRLLEGKGGKQVQLSEVEIRQLCVNARQIFLSQPNLLELHAPIRICGDIHGQYQDLLRLFEYGGYPPSANYLFLGDYVDRGKQSLETICLLLAYKIRYPSKIFLLRGNHEDAKINRIYGFYDECKRRFNVRLWKIFTDCFNCLPVAALIDEKILCMHGGLSPELENLGQIREIQRPTEIPDNGLLCDLLWSDPDQKNEGWTDSDRGISCTFGADVVADFLDKNDLDLICRGHQVVEDGYEFFAKRRLVTIFSAPNYGGEFDNAGALLSVDQSLVCSFEILKPAPASSTNPLKKVPKMGKS
notes: Type one protein phosphatase 9 (TOPP9), PP1 catalytic subunit, Arabidopsis thaliana; source: recombinant, purified on microcystin‐Sepharose (as in Templeton et al. 2011)
